Measurements taken from the PETadex activity labels (doi:10.3390/molecules28083528).
Positions count from the first letter of the chain named.

B1: unnamed (protein)
chain: MAVGSMLLSMAAQAQVVVFEETFSTGLGKFTAAGSVVTSSGAARLDGCYGCTDGSITSTAISTVDFTGLRLSFDRVTSGLDSGEAGIAEFSTNGSTYTAVESIRTASGRVTFNLPTSAENQSGLRLRFRINASLSSETYTVDNIRLEGTSGSGGGTTNPFEKGPDPTKTMLEASTGPFTYTTTTVSSTTASGYRQGTIYHCTNVTGPFAAVAVVPGYLASQSSINWWGPRLASHGFVVITIDTNSTSDQPPSRATQLMAALNQLKTFSNTSSHPIYRKVDPNRLGVMGWSMGGGGTLIAARDNPTLKAAIPFAPWNSSTNFSTVSVPTLIIACESDSTAPVNSHASPFYNSLPSTTKKAYLEMNNGSHSCANSGNSNAGLIGKYGVSWMKCFMDNDTRFSPYLCGAPHQADLSLTAIDEYRENCPY
B2: unnamed (protein)
chain: B1 chain with C201P, C391R
B3: unnamed (protein)
chain: B1 chain with C201P, N364C, C391R, D411C

Key:
BHET = experiment: Proxy for plastic degradation [Released monomer concentration (HPLC/LC-MS) (TPA+MHET)]
PET [1] = experiment: Proxy for plastic degradation [Released monomer concentration (HPLC/LC-MS) (MHET+TPA)]; settings: pH 9
PET [2] = experiment: Proxy for plastic degradation [Released monomer concentration (HPLC/LC-MS) (Not Mentioned)]; settings: pH 9

| Protein | Proxy for plastic degradation (BHET; pH 7, 30 °C) [µM] | Proxy for plastic degradation (BHET; pH 7, 40 °C) [µM] | Proxy for plastic degradation (BHET; pH 7, 50 °C) [µM] | Proxy for plastic degradation (BHET; pH 9, 30 °C) [µM] | Proxy for plastic degradation (BHET; pH 9, 40 °C) [µM] | Proxy for plastic degradation (BHET; pH 9, 50 °C) [µM] | Proxy for plastic degradation (PET [1]; 30 °C, 1 h) [µM] | Proxy for plastic degradation (PET [1]; 30 °C, 2 h) [µM] | Proxy for plastic degradation (PET [1]; 30 °C, 3 h) [µM] | Proxy for plastic degradation (PET [1]; 30 °C, 4 h) [µM] | Proxy for plastic degradation (PET [1]; 30 °C, 5 h) [µM] | Proxy for plastic degradation (PET [1]; 30 °C, 6 h) [µM] | Proxy for plastic degradation (PET [1]; 40 °C, 1 h) [µM] | Proxy for plastic degradation (PET [1]; 40 °C, 2 h) [µM] | Proxy for plastic degradation (PET [1]; 40 °C, 3 h) [µM] | Proxy for plastic degradation (PET [1]; 40 °C, 4 h) [µM] | Proxy for plastic degradation (PET [1]; 40 °C, 5 h) [µM] | Proxy for plastic degradation (PET [1]; 40 °C, 6 h) [µM] | Proxy for plastic degradation (PET [2]; 1 h) [µM] | Proxy for plastic degradation (PET [2]; 2 h) [µM] | further results |
| --- | --- | --- | --- | --- | --- | --- | --- | --- | --- | --- | --- | --- | --- | --- | --- | --- | --- | --- | --- | --- | --- |
| B1 | 19.1 | 19.5 | 20.2 | 19.6 | 37.1 | 55 | 2.3 | 3.8 | 1.6 | 5.4 | 4.6 | 4.9 | 0.84 | 3 | 4.3 | 8.2 | 8 | 9.8 | 2.3 | 3.8 | Proxy for plastic degradation (PET [2]; 3 h): 1.6 µM; Proxy for plastic degradation (PET [2]; 4 h): 5.4 µM; Proxy for plastic degradation (PET [2]; 5 h): 4.6 µM; Proxy for plastic degradation (PET [2]; 6 h): 4.9 µM |
| B2 | – | – | – | – | – | – | – | – | – | – | – | – | – | – | – | – | – | – | 6 | 8.6 | Proxy for plastic degradation (PET [2]; 3 h): 12.8 µM; Proxy for plastic degradation (PET [2]; 4 h): 11.8 µM; Proxy for plastic degradation (PET [2]; 5 h): 14.5 µM; Proxy for plastic degradation (PET [2]; 6 h): 15 µM |
| B3 | 28.8 | 31.2 | 37.6 | 28.9 | 43.2 | 66.1 | 12.1 | 22.4 | 33.3 | 44.1 | 64.8 | 72.1 | 24.3 | 43.4 | 59.5 | 58 | 101 | 104 | – | – | – |
